Measurements as given in paper PMC4251045.

Key:
[1] = molecular target: Rim1-C-terminal 6xHis (yeast); assay: cross-linking; DSS 2.5 mM, 3 uM Rim1 tetramer, 25 mM HEPES, 100 mM NaCl, 10% glycerol, pH 7.5, room temperature 40 min; products resolved on 5-15% SDS-PAGE; bands digested and analysed by nanoLC-LTQ-Orbitrap MS (XLPM, StavroX)
[2] = molecular target: Rim1-C-terminal 6xHis (yeast); assay: cross-linking; SDA (NHS-diazirine) 50 uM, 3 uM Rim1 tetramer, 25 mM HEPES, 100 mM NaCl, 10% glycerol, pH 7.5, NHS step 25 °C 30 min, then UV 365 nm; SDS-PAGE; bands analysed by nanoLC-LTQ-Orbitrap MS (XLPM)

Rim1-C-terminal 6xHis (natural protein)
stoichiometry N [1]: 4
stoichiometry N [2]: 4
